Results as given in the DeepSol protein solubility set.

assay: soluble on expression in E. coli; label from the status in PepcDB or PDB records

Sequence	soluble on expression in E. coli
MAKSNSNNSHNEADTLSSLLSSVGSSYDGESDSTFVSTGTTPSSSRRSRLDSFLSTTSSSKSRPRIKSKLPRSSSSGFSGTGSERSISSKRSKIGNTSGNRNKISQSARRRLLQAEIESRRNRSNKSPGSSRKSILKKSPMKKRRSLSRKSLPKKEHIPPVQKFAIIKNPAARNQVRGFVAEYAQDPEFEAFELLVDGIPFVALSLMNAHPDLRGRFKPVPPPTPMKKHTPGINSPRKRPLRRESISSVNSKSVRFTDEGSSFSKRARKSSSGDVDSSIRELGETVSDAMIDTGRQYNDLWKDRAHSVEK	not soluble
MAKVSLEKDRIKFLLVEGVHQSAVDNLRAAGYSNIEYHKGALDAESLKASIRDAHFIGIRSRTHLSEDVFAAAEKLVAVGCFCIGTNQVDLKAATKRGVPVFNAPFSNTRSVAEMVLGELLLMFRGIPSANAKAHRGEWNKLAVGSFEARGKKLGIIGYGHIGTQLGILAESIGMKVFFYDIENKLSLGNAQQVRQLSDLLNMSDVVSLHVPENHTTKNMIGAEQLAQMKPGALLINASRGTVVDIPALCDALSSNHLSGAAIDVFPEEPATNKDPFNSPLCEFDNVLLTPHIGGSTQEAQENIGDEVAGKLAKYSDNGSTLSAVNFPEVSLPAHGDNTRRLLHIHENRPGILTSINTIFAEQNVNIAAQYLQTSADIGYVVIDVETDDADNAEKALQAMKAIPGTIRARLLY	not soluble
MAKYIEIANTLRTSISNHEYKNNDPFPDQQALSKKFSTSRMTIQKALNILKTEGLIYSKQGSGTFVSSNADLIEQTDLEINQYIGTTDLFGKTHKINSKIIKFTIRYPDKSEQNALRISKKDLIYDITRLRIVDEEPYVLEYTKMPVKVIPGISDDILKKSIYHYIKSDLNLKIGSAFRKIRADKPNLFDKKFLNCKNEDPILEITQTAFLNSDIPFEFSRVRYRYDKGNMVVFVKSSFER	not soluble
MALELSDIRQQITQIDRSLLKLLSERHRLAFDVVRSKEISQKSLRDVEREQQLLQELVQFAENENYQLEAQYITSIFQKIIEDSVLTQQVYLQNKLNEQRNQNLHIAFLGKRGSYSNLAARNYAARYQKQFVELGCQSFEQVFEKVQTGEADFGVLPLENTTSGAINEVYDLLQHTDLSLVGELAYPIKHCVLVNDKTDLNQIDTLYSHPQVIQQCSQFIHSLDRVHIEYCESSSHAMQLVASLNKPNIAALGNEDGGKLYGLSVLKTNIANQENNITRFIVVAKEPREVSSQIPTKTLLLMTTSQQAGALVDALLVFKKHQINMTKLESRPIYGKPWEEMFYLEIEANIHHPDTKQALEELKNYSNYLKILGCYPSEIVKPVSV	not soluble
MALGPLVTGLYDVQAFKFGDFVLKSGLSSPIYIDLRGIVSRPRLLSQVADILFQTAQNAGISFDTVCGVPYTALPLATVICSTNQIPMLIRRKETKDYGTKRLVEGTINPGETCLIIEDVVTSGSSVLETVEVLQKEGLKVTDAIVLLDREQGGKDKLQAHGIRLHSVCTLSKMLEILEQQKKVDAETVGRVKRFIQEAHHHHHH	soluble
MALLEICCYSMECALTAQRNGADRIELCAAPKEGGLTPSFGVLRSVREHITIPVHPIIRPRGGDFYYTDGEFAAMLEDIRLVRELGFPGLVTGVLTVDGDVDMSRMEKIMAAAGPLAVTFHRAFDMCANPFNALKNLADAGVARVLTSGQKADAAQGLSIIMELIAQGDAPTIMAGAGVRANNLQNFLDAGVREVHSSAGVLLPSPMRYRNQGLSMSADIQADEYSRYRVEGAAVAEMKGIIVRHQAKLEHHHHHH	soluble
MALLLVMGIPASGKSTFRRKIQTAHRELLESTSFDDFRMMRTRSSDKNARQTRKSFECHVESCISESTSKIYVIEDIFYLKSMRHPFQKIAKRHGLQFGIIFLKVGIVEALRRNSHRTGIEKQKNETIRKIFEKMEDPDEILENSIVLETDEVEIDVEVVMNKLKFDFTAKKPIVPEVSLKKSHIQKPPPPSKLESLDVLTRRLVSELMQNDKTMNGRKLSDARKKLLIDLSGNLEISNENDPKFLYDLKLKLIEFYDK	not soluble
MALNDNPIPKSVPLHPKSGKYFHNLHARDLSNIYQQCYKQIDETINQLVDSTSPSTIGIEEQVADITSTYKLLSTYESESNSFDEHIKDLKKNFKQSSDACPQIDLSTWDKYRTGELTAPKLSELYLNMPTPEPATMVNNTDTLKILKVLPYIWNDPTCVIPDLQNPADEDDLQIEGGKIELTCPITCKPYEAPLISRKCNHVFDRDGIQNYLQGYTTRDCPQAACSQVVSMRDFVRDPIMELRCKIAKMKESQEQDKRSSQAIDVL	soluble
MALPKFELLSLADNTVGWGPLASSSSADEPVPFQQFNKADRIGRVADWIGVDRFYRRGNERYNERVYGSAANAGSQFDYIHGMDEHNFQLVDTSKPMARNPQRNFRVRQMHLRKMMQKENEKREMVNQSTNLRMKRSIAKEQQRAFKMWQRRGGNARQGQRGQGGRFGGDRPKERLPSVQVRPEWVVLEEMNLSAFSKLALPNIPGGDDIGDHQYGSLQYYDKTIDRVSVKNSIPLQRCAGVFYNVTTTEDPVIQELAQGGAGNVFGTDIILATLMTAPRSVYSWDIVAYRVGDKLFFDKRNTRDILNPVETLTVSETSAEPPSFDGNGINNAKDLATEAFYINQNFRRQVVKRNDAGFTFKNARAPFEDEETGESGTAYKYRKWNLGNGVDGKPVELVCRTELDGVIHGLGNETQTLTIKAFNEWDSTQSGGVDWRTKLDVQKGAVMATEIKNNSAKVAKWTLQALLAGSDTMKLGYVSRNNARSTQNHSILLTQYVKPTEFASNIALNMDNCWGILRCVIDSCMKQKPGKYLLMKDPQSPVIRLYSLPEGTFESERESSDEENSDDDQ	not soluble
MALPTIESFKKLSSEDKRQVLDHLFEPCNTLSNFVFIKVLHQQYNTYPEFINLVRKELLEFLKQSETFQSQYQGEISPVINEIISAHPRLGEPKKETLSVHSNNEQKTLNNDPEIIKKLKELNAAYEKTFPGLRYVVFVNGRSRHEIMDNMQKRIERNDINLERVEAFNAMCDIALDRANKLGIKL	not soluble
MALREFSSVKVGDQLPEKTYPLTRQDLVNYAGVSGDLNPIHWDDEIAKVVGLDTAIAHGMLTMGIGGGYVTSWVGDPGAVTEYNVRFTAVVPVPNDGKGAELVFNGRVKSVDPESKSVTIALTATTGGKKIFGRAIASAKLA	soluble
MALRRVKNPEMWNDDLYNLMFRFTKPNGTFATFTAASAVRKGLESAGFNVTKRKGFGKKRECLSGLKIQSKSTALSTPWYLAQPAKMEKQDVAIIGGGIASLCAAISLIKRGAKVTIYCEDDALALNASGNKQGAFYPQLSDDNALTVDFYLHAFSYGRQLLDWAIEQNIVFEHEFCGVALCAYNEKSAVKLTKISQLGLPNEIFQMLSAEQLSEKVGLPLNCEGGWIEQGAWLAPRQFVQNAFSFLEKQGVVIKTAQKITALSQLEKGWELKNMQGQKYCHEVVILANGHKITDFVQTEKLPLYPIRGQVSQIPTSENLLKLKSVLCYDGYLTPANQLKTSHCIGASMFVIMLIAILANKNNKKINKNSSKISPNLGRKMWIHQIISLVLEHHHHHH	not soluble
MAMNVTEIVLKKPVTAHNEMLHVLELREPTYDEIEALGFPFIISGEGSIKLDSQVALKYIPLLAGIPCSSAAQMAKLDIFKTSMQILRFFTQSETGSTSGNDSTMLPGSGN	not soluble
MANAFGLSLGTALRRDPAEGPVRPQRPLGRLIWLHAPTRDSARPMAELGRRIILDEGFPVLLTTHVPVSSGGILIVQPPPPDTPAAVAAFLDHWRPDAAFMAEGELRPSLINSAFDRNVPLALVDGAAPRILPGRESWWPGQMRNLLAKFRHIFTLDEAAARAFRKAGSSSHVTQVAGRLEEGSLALPCTEAERAALARLLAPRQVWLAAGLPIEEEAAAIAAHHAALKLAHRMLLIVVPQEPDRAAAFAARCEAEGWKVARRAADEEPDADTEVFVADGMAELGLWYRLAPVTWLGGSLSVGCVLDPLEAASLGSALIHGPHFGPHGATLARLSAARASLPVASARGLAEALADLLAPDRVARLAHAGWAVASEGTEVTDRMVALAGRLVEREALEHHHHHH	not soluble
MANGTVKIAEQSGVLPIAGDKIVLITARGSGRWIIPKGYIEKGMSPAESAAKEAWEEAGIVGSVRHEEIGTYSYRRPSGIFSVRIYPLEVESLLEQWDEMHVRQRRLVTPSEAIEMICLKELRSLITDYLIKRFDFLEHHHHHH	not soluble
MANSAGSMIKEFCAENFTKIPQAIQKGANRIELCDNLAVGGTTPSTGVIEEVLAYAGEHSVPVMTIIRPRGGNFVYNDIELKIMHTDLIEAKKLGTDGIVIGCLTEDGWLDEEALDLFIETAEGLQITFHMAFDALSKENQFKAIDWLAERGVTRILTHGGPAGTPIEDNFDHLKELIVYADQRILILPGGGISTENVQTVMDTLKVTEVHGTKIVLEHHHHHH	not soluble
MANYPKELPAQTQSRQPGIESEMNPSPVYEYEDYKGADKLKGKVALITGGDSGIGRAVSVAYAKEGADIAIVYKDEHEDAEETKKRVEQEGVKCLLIAGDVGEEEFCNEAVEKTVKELGGLDILVNNAGEQHPKESIKDITSEQLHRTFKTNFYSQFYLTKKAIDYLKPGSAIINTTSINPYVGNPTLIDYTATKGAINAFTRTMAQALVKDGIRVNAVAPGPIWTPLIPATFPEETVAQFGQDTPMGRPGQPVEHVGCYVLLASDESSYMTGQTLHVNGGNFVT	soluble
MAPKDNTWYTGAKLGFSQYHDTGFINNNGPTHENQLGAGAFGGYQVNPYVGFEMGYDFLGRMPYKGSVENGAYKAQGVQLTAKLGYPITDDLDIYTRLGGMVFRADTKSNVYGKNHDTGVSPVFAGGVEYAITPEIATRLEYQFTNNIGDAHTIGTRPDNGMLSLGVSYRFGQGEAA	soluble
MAPPNGTTNGETEVATQGSYTAVSTGRKTTMHRLIEEHGSVLMPGVQDALSAAVVEKTGFHAAFVSGYSVSAAMLGLPDFGLLTTTEVVEATRRITAAAPNLCVVVDGDTGGGGPLNVQRFIRELISAGAKGVFLEDQVWPKKCGHMRGKAVVPAEEHALKIAAAREAIGDSDFFLVARTDARAPHGLEEGIRRANLYKEAGADATFVEAPANVDELKEVSAKTKGLRIANMIEGGKTPLHTPEEFKEMGFHLIAHSLTAVYATARALVNIMKILKEKGTTRDDLDQMATFSEFNELISLESWYEMESKFKNFTPKAT	soluble
MAPQPFDIDTPSLRVFLPAPELATGRAIVACPGGGYGGLAVNHEGYDWAPYFNKQGIALIVLKYRMPHGDRTLPISDAEAAMKMARDSADVWNLNPYDIGIMGSSAGGHLASTIATHTRPELRPNFQILFYPVITMDKSYTHIGSHDNLLGKDAFAELETEFSNEKQVTKETPRAFIAYSDDDKTVPPANGVNYYLGLHKNHVPAVLHIYASGGHGWGIRENFIYLEHHHHHH	not soluble
MAPSKSKEKKEKAKTSRRKSGSQTKKDTTSTVSEGKSPTEVADQLLKAKSRPQMYDLLKGHAAFNVPEFVKNLPVNVRLPIPIRDNRRVLCGSDEEFFPGQYVRMEGAEYIIVQAPTKKSSKLIWRVILKDHIRILVCLCHDEQMSGSDDGKCYTYFPTELEQKMEAELMKGTLSIVCKAREGLSMGATKYELELTDSEVVIDKNSDDPNASNYKSHRLIVFHMNTWSGQKPTSGNALEQAQNVALFFREVKKFEMDILRKSMENFVPPVMLQSFDGINRASTGWVALMLLRDVEKRECFDVPSLIKAIMKFRNGSISTYYQFCFCMAVCLNIGKHTNWCANDCSTALTDLMEKFGNRKLNELGNLAV	not soluble
